The values below are quoted from earlier work in article PMC8179794.

A word on the Kd: it is the free concentration of one partner at which half of the binding sites on the other are occupied at equilibrium, for simple one-to-one binding.

Some targets named below: IL-9R (Homo sapiens) (UniProt Q01113); IL-15Rα (Homo sapiens) (UniProt Q13261); IL-21R (Homo sapiens) (UniProt Q9HBE5); IL-2Rα (Homo sapiens) (UniProt P01589).
For series [1], the target named is IL-2Rβ (Homo sapiens) (UniProt P14784).
Chain of UniProt P14784 (P14784 27-240): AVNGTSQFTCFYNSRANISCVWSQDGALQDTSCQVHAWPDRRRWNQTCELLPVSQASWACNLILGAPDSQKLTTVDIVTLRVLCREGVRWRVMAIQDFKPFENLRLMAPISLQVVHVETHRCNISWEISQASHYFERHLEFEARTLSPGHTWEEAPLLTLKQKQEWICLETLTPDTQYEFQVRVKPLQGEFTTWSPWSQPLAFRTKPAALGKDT
The target is the same in series [2]. This is another data set of the same source.

Read-outs that look alike come from different tables or passages of the source.

Chain of UniProt P01589 (P01589 22-240): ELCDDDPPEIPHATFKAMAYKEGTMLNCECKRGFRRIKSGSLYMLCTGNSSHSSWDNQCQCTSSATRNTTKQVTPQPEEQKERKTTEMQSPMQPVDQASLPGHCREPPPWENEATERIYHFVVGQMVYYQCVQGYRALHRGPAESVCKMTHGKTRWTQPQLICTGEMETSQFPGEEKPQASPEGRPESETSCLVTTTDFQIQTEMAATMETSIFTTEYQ
Chain of UniProt Q9HBE5 (Q9HBE5 20-232): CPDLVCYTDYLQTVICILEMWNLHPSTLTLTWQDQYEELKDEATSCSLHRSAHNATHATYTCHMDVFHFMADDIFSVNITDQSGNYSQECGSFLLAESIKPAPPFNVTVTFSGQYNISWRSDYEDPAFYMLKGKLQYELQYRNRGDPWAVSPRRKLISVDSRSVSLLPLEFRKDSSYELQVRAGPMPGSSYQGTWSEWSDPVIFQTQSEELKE
Chain of UniProt Q13261 (Q13261 31-205): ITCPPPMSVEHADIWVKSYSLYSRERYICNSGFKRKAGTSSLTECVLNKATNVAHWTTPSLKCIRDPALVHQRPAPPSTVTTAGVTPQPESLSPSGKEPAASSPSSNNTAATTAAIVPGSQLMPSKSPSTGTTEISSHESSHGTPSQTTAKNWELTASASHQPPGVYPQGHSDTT
Chain of UniProt Q01113 (Q01113 41-270): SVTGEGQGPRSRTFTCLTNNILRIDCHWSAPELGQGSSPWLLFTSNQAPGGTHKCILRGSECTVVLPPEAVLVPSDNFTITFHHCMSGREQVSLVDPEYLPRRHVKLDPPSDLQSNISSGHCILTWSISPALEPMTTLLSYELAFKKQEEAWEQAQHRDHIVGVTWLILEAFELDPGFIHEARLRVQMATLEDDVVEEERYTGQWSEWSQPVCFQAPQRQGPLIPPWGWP

As for IL-9 (from UniProt P15248), the dissociation constant Kd with IL-9R (Homo sapiens) is 0.1 nM. With IL-15 (from UniProt P40933), the figures for the Kd with IL-15Rα (Homo sapiens) and with IL-2Rβ (Homo sapiens) [1] were 0.065 nM and 438 nM, respectively. Turning to IL-21 (from UniProt Q9HBE4), the Kd in the series with IL-21R (Homo sapiens) was 0.07 nM. With IL-2 (from UniProt P60568), the Kd was 10 nM with IL-2Rα (Homo sapiens) and 144 nM in the series with IL-2Rβ (Homo sapiens) [2].
